Measured values as given in the supplement of paper PMC9732359.
± gives the uncertainty stated by the source.

Experiment: protein stability index of a GFP-peptide fusion (yeast GPS) (PSI 1-4); higher = more stable; sorted into four equal gates, so the index is relative within each strain
Summary of the method: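 The protein stability index combines read frequencies across sorting gates, each weighted by its gate number and then summed. To obtain those frequencies, a pooled yeast library of GFP fusions to tiled 17-residue yeast protein peptides, on a plasmid also expressing Cherry, was grown to mid-log phase in leucine-free medium. The cells were sorted into four equal gates by GFP/Cherry ratio before plasmid amplification by PCR and Illumina sequencing.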

Sequence | protein stability index (doa10∆) | protein stability index (pdr5∆) | protein stability index (san1∆) | protein stability index (ubr1∆)
NCIRILADKLENYEGKQ [YIL149C/MLP2] | 3 ± 0.3 | 3.57 ± 0.2 | 3.22 ± 0.093 | 2.81 ± 0.19
EDLKNFIFQIIEITNSN [SRB8] | 1.96 ± 0.075 | 2.1 ± 0.056 | 2.23 ± 0.086 | 1.79 ± 0.05
LWNQWLKLNTSLPSKLT [SRP68] | 1.45 ± 0.049 | 1.51 ± 0.052 | 1.36 ± 0.11 | 1.83 ± 0.037
CISLGSTKLSRPFDSFG [ITC1] | 3.06 ± 0.067 | 2.93 ± 0.061 | 3.03 ± 0.048 | 3.01 ± 0.08
TYKYPSLKGVDPKFRRN [RPL29] | 3.03 ± 0.11 | 2.88 ± 0.25 | 2.97 ± 0.12 | 3.12 ± 0.09
SQSSAAAGASVDDKRRN [RPN6] | 3.38 ± 0.2 | 3.41 ± 0.088 | 3.02 ± 0.087 | 3.25 ± 0.087
NEEINKKSLEEDDEFED [SEM1] | – | 3.33 ± 0.11 | 2.9 ± 0.25 | –
INKYESSPSHIELVVTE [RPL17A] | 2.08 ± 0.045 | 2.56 ± 0.051 | 2.05 ± 0.067 | 2.17 ± 0.036
ITASTLLYADSLTAEAM [CYT1] | 2.1 ± 0.064 | 2.31 ± 0.059 | 2.51 ± 0.095 | 2.18 ± 0.039
VPLSDNAIIEANLGKYG [RPL7A] | 2.29 ± 0.073 | 2.25 ± 0.074 | 2.45 ± 0.074 | 2.28 ± 0.075
RTKTPGPGGQAALRALA [RPS14B] | 2.39 ± 0.077 | 2.55 ± 0.11 | 2.23 ± 0.1 | 2.46 ± 0.08
WNLLRSLYIFFTTLLES [YML103C/NUP188] | 2.08 ± 0.058 | 1.58 ± 0.044 | 1.69 ± 0.06 | 1.43 ± 0.028
IPSSKIDDFTTRLWGSV [SNU114] | 2.93 ± 0.16 | 3.05 ± 0.14 | 3 ± 0.12 | 3.21 ± 0.12
LEGITTTIDSLNAELES [SMC3] | 1.57 ± 0.088 | 1.77 ± 0.15 | 2.27 ± 0.17 | 3.14 ± 0.1
FNGAQLKAVTVEAGMIA [RPT5] | 2.73 ± 0.28 | 2.62 ± 0.15 | – | 2.03 ± 0.19
SSPTLATGFGAHMANPL [PRE4] | 3.26 ± 0.09 | 3.07 ± 0.097 | 2.98 ± 0.068 | 2.65 ± 0.097
MIISGSRDKTIKVWTIK [ASC1] | 2.48 ± 0.084 | 2.71 ± 0.092 | 2.49 ± 0.11 | 2.95 ± 0.087
EFDSTDTSLCINGEPSI [RRI1] | 3.16 ± 0.077 | 3.15 ± 0.088 | 3.08 ± 0.054 | 3.24 ± 0.046
GIEHFDIPPPAIMKPYY [RPO31] | 2.69 ± 0.15 | 2.92 ± 0.084 | 3.34 ± 0.13 | 2.91 ± 0.099
ANNGAAFSPLTTTRIQS [MED2] | 2.67 ± 0.081 | 2.91 ± 0.06 | 2.65 ± 0.066 | 2.66 ± 0.044
RVKDPQWLIMLGICTHL [RIP1] | 2.62 ± 0.064 | 2.48 ± 0.055 | 2.36 ± 0.075 | 2.91 ± 0.045
PIDAGLNEAPFPEENII [MCD1] | 3.01 ± 0.069 | 2.88 ± 0.054 | 3.06 ± 0.033 | 2.96 ± 0.041
DSLRKLYVDSESTSSTE [MTW1] | 2.86 ± 0.072 | 3.51 ± 0.1 | 3.16 ± 0.1 | 3 ± 0.068
EPHAVSLAWSADGQTLF [ASC1] | 2.85 ± 0.12 | 3.06 ± 0.14 | – | 2.79 ± 0.26
IIYPRSQTTLVQFGLNE [ARP9] | 3.04 ± 0.19 | 1.33 ± 0.082 | 2.03 ± 0.12 | 1.26 ± 0.17
EDEDDGESEKSSDVDMD [RPC53] | 3.28 ± 0.11 | 3.66 ± 0.14 | 3.29 ± 0.19 | 3.32 ± 0.094
ENHNGQSISNENDVKPI [SWI3] | 2.07 ± 0.054 | 1.83 ± 0.051 | 2.48 ± 0.069 | 2.48 ± 0.045

Sequence | protein stability index (doa10∆) | protein stability index (pdr5∆) | protein stability index (san1∆) | protein stability index (ubr1∆)
ILRKELSEEKEVIFTDV [MCD1] | 2.66 ± 0.15 | 3.02 ± 0.23 | 2.32 ± 0.12 | 2.73 ± 0.17
FGVTKARWPAKSVKFVQ [RPL17A] | 2.63 ± 0.088 | 2.51 ± 0.077 | 2.55 ± 0.069 | 3.05 ± 0.059
ELLANKCPLLVEVDITL [GRR1] | 1.44 ± 0.06 | 1.58 ± 0.047 | 1.59 ± 0.082 | 1.47 ± 0.041
ENEVSDIDVTIVSKEYE [ESC2] | 3.08 ± 0.13 | 2.19 ± 0.098 | 3.09 ± 0.081 | 1.96 ± 0.066
RPDIVHTVFTSVNKNKR [RPL4A] | 1.26 ± 0.088 | 1.46 ± 0.11 | 1.24 ± 0.17 | 1.4 ± 0.12
IQKEEEPENNTVIEGVK [SWI3] | 3.3 ± 0.073 | 3.06 ± 0.072 | 3.28 ± 0.048 | 3.25 ± 0.053
ASVGDILKTLERSICAL [YML031W/NDC1] | 2.12 ± 0.066 | 2.94 ± 0.088 | 2.79 ± 0.086 | 2.64 ± 0.058
LKESYSQKHNGRILKWL [CDC53] | 2.01 ± 0.059 | 2.69 ± 0.057 | 2.34 ± 0.055 | 2.14 ± 0.056
KLSDIFLSKPSKALYPD [SNF2] | 2.53 ± 0.041 | 2.84 ± 0.049 | 2.61 ± 0.042 | 2.7 ± 0.041
AFVEFGASVIAGGQRIV [SWP82] | 2.21 ± 0.13 | 2.35 ± 0.1 | 2.02 ± 0.1 | 2.07 ± 0.085
MCQNPMQKPVPFVPVLD [FAS1] | 1.47 ± 0.039 | 1.54 ± 0.034 | 1.29 ± 0.061 | 1.52 ± 0.031
KIFTPNLLQISAAELER [SNF5] | 1.77 ± 0.064 | 1.97 ± 0.061 | 1.76 ± 0.1 | 1.33 ± 0.066
QEDFEVVEEFTPVVLAT [RPS5] | 3.1 ± 0.091 | 2.45 ± 0.059 | 2.3 ± 0.046 | 2.31 ± 0.042
QLAVRAPKGQNTLILRG [RPL18A] | 2.86 ± 0.28 | – | – | –
LIRLQMEKLDAKLNHLK [SWI3] | 3.06 ± 0.17 | 3.04 ± 0.15 | 2.85 ± 0.15 | 3.1 ± 0.2
NFARQLLFNNDFPLLKV [RRP40] | 2.91 ± 0.05 | 2.02 ± 0.049 | 2.06 ± 0.08 | 2.12 ± 0.037
LLIATNLKEYNKFMSIF [SRB8] | 1.64 ± 0.051 | 1.82 ± 0.089 | 2.17 ± 0.2 | 1.94 ± 0.086
IRINDEPILGQITLTFI [YML103C/NUP188] | 2.21 ± 0.067 | 2.64 ± 0.05 | 1.57 ± 0.073 | 2.25 ± 0.048
QFISSRQFEVKQLQLAM [POP1] | 2.24 ± 0.051 | 2.45 ± 0.051 | 2.1 ± 0.067 | 1.74 ± 0.037
SDWNPQADLQAMDRAHR [ISW2] | 2.93 ± 0.16 | 3.23 ± 0.12 | 3.14 ± 0.11 | 3.39 ± 0.18
NSEISNLPKDKSGIPEF [SSN2] | 2.98 ± 0.087 | 3 ± 0.11 | 2.9 ± 0.072 | 3.33 ± 0.076
DLIADTITNSSSSSDII [YML103C/NUP188] | 2.89 ± 0.077 | 2.46 ± 0.046 | 2.63 ± 0.04 | 2.56 ± 0.044
REIESLIAEETNNKKLL [SMC3] | 2.78 ± 0.18 | 2.86 ± 0.082 | 3.01 ± 0.11 | 2.92 ± 0.15
LMYATDWQMMTSPVTGA [CSL4] | 2.85 ± 0.15 | 3.21 ± 0.2 | – | 2.79 ± 0.28
PGTTSTGNNNNIATQQN [GAL11] | 2.03 ± 0.052 | 2.69 ± 0.081 | 2.77 ± 0.085 | 2.73 ± 0.056
TVSRAYGGSRCANCVKE [RPL34A] | 2.4 ± 0.071 | 2.96 ± 0.068 | 2.43 ± 0.1 | 2.19 ± 0.043
DLSWSKQTDTGITHFRA [PRP8] | 2.85 ± 0.085 | 3.11 ± 0.057 | 3 ± 0.055 | 3.02 ± 0.049
